Assay results: the DeepSol protein solubility set

assay: soluble on expression in E. coli; label from the status in PepcDB or PDB records

Row | Sequence | soluble on expression in E. coli
1 | MSLTNQVTYLFFHGMKQISEHLFTTEEQAIIARSKAEGSYMKAPNGQATNLNKKQWAQVRTRAFREWFGDWENNPDEASKVRDANGEPLVVYHGTPISRDQAADRSKFRIADDWEIQTINAPFHTFRGGAYNGLIFTSLTEEKARSIGETRSMSIPDSEDGREQWTTDSYVYDLFVNARQPFDVKNPNAVKDILDALEGQLTAYDFYLGMEVPVSRKEAEKILEGGNSWRVVETPSMQEIIRSRGYDAIHALDEGVQYMAVFAPNQLKASGKYLYSERNTGVFSPGNNDIRFREVHHGVPASFTGYRSMKTETVRNDNIPAVLAALREKLEDTEQEWQDRILDYIAENYPTQTTVSAQTRSPEGLKEREAMKKDKTLRKMKEEAVAALNAADEKVMEAFKKENGDILFREVKENDGGKSLVGLHNISEEKLLKALKLGGLANPSAAVIDIARQSHEGYGEISLILPSSMIDKRTGRNAGTFSGDAWTPVYPQIERQFSGDGSGRVRDAISRLPQEMQPNVRSAWNSYMDGRDEGSAFAYQFLYERGEAPEFRKIEPLFGEHLRNRISAIDALDDYDERNTALLEVYIEENFGGDQTKFKDYIETRKRVLQDKEGHHHHHH | not soluble
2 | MSLTPDAQVATAQRDDQALISEGKDLYDVACITCHGVNLQGVEDRGPSLVGVGEGAVYFQVHSGRMPILRNEAQAERKAPRYTEAQTLAIAAYVAANGGGPGLVYNEDGTLAMEELRGENYDGQITSADVARGGDLFRLNCASCHNFTGRGGALSSGKYAPNLDAANEQEIYQAMLTGPQNMPKFSDRQLSADEKKDIIAFIKSTKEGHHHHHH | soluble
3 | MSLTPLMVNGILGESVTLPLEFPAGEKVNFITWLFNETSLAFIVPHETKSPEIHVTNPKQGKRLNFTQSYSLQLSNLKMEDTGSYRAQISTKTSAKLSSYTLRILRQLRNIQVTNHSQLFQNMTCELHLTCSVEDADDNVSFRWEALGNTLSSQPNLTVSWDPRISSEQDYTCIAENAVSNLSFSVSAQKLCE | soluble
4 | MSLTPSMRRTRIVCISDTHNCQVKLPEGDVLIHAGDLTNQGSHAELAKTVAWLEKQDFEAKIVIAGNHDITLDPEFYAEHGLYFHNKNPQSHDECLRLFTSSPSITYLSHGSANISLTSPSGPRTHFKVFGSPYSPRHGLWAFYYDAPQNPSNWSDLTSLWESIPLDTDIVVTHTPPRMHCDETDERRATGCEALRQALWRVRPQLVVCGHIHDGRGAERVMWDLNCRNVAYQEESVVRWEDPGQGNNKTCLVDLTGKKAPSEGHHHHHH | soluble
5 | MSLTPWLSIVGISEEGWLALTPIAQQCILQADILVGSDRHFDLLPSLPGAEQWRWGSPFSATITQILERRGQSICILASGDPMCYGVGSLLAQRLPLTELQILPAPSAFSLACSRLGWALPEVETLSLCGRDPALLNALLYPGAKILALSADRSTPATIAEQLCQQGWGSSRLTVLEHLGGPKERKISEIAEHWSQPTIASLNTVAIECHARDRDLIVPPRLTGLPDAAYHHDGQLTKREVRAITLAALAPLPGQLLWDVGAGCGSIGIEWMRSDRRCRAIAIEQHPQRLQIITQNAIALGVPNLQVVAGSAPATLSGLPQPDAIFIGGGVTAPGVLDQCWQALPMGGRLVVNAVTLESEQVVLAGQQRWGGDLIRVAVQRAEPIGRFLGWKSLAPITQWTVKKTALEHHHHHH | soluble
6 | MSLTQTILVIDDDAAVRGSFQLVLGEIGCVVRVAEDGLQGIAMAREERPDLIFLDLKMPGIDGVETMRRLLAMDPTFNIYIVTAFSQEYLDDLKQAQAEGMTFQLANKPLSSTQIRHIARSVRSLSNVSKDNHRISLTLYVVSVNPEIQKVVDQLSNVLAATYRAGFWVLNVVEVLGMPEKALEKDVFATPMLVREVPEPVLKLLGDLSRMHSVLSAITAENGHGAGTEGHHHHHH | soluble
7 | MSLTQYWLGLDCGGSWLKAGLYDREGREAGVQRLPLCALSPQPGWAERDMAELWQCCMAVIRALLTHSGVSGEQIVGIGISAQGKGLFLLDKNDKPLGNAILSSDRRAMEIVRRWQEDGIPEKLYPLTRQTLWTGHPVSLLRWLKEHEPERYAQIGCVMMTHDYLRWCLTGVKGCEESNISESNLYNMSLGEYDPCLTDWLGIAEINHALPPVVGSAEICGEITAQTAALTGLKAGTPVVGGLFDVVSTALCAGIEDEFTLNAVMGTWAVTSGITRGLRDGEAHPYVYGRYVNDGEFIVHEASPTSSGNLEWFTAQWGEISFDEINQAVASLPKAGGDLFFLPFLYGSNAGLEMTSGFYGMQAIHTRAHLLQAIYEGVVFSHMTHLNRMRERFTDVHTLRVTGGPAHSDVWMQMLADVSGLRIELPQVEETGCFGAALAARVGTGVYHNFSEAQRDLRHPVRTLLPDMTAHQLYQKKYQRYQHLIAALQGFHARIKEHTLEGHHHHHH | soluble
8 | MSLTRDGSPWIPIAGEMHYSRIAAERWDTELAKMAAAGIDVVSTYVFWNHHEEREGEWDFSGNRNVRRFVELCARHGLHVIVRLGPFCHGEVRNGGLPDWLYGKSYEVRSLDAGFLDAVRGLYAHIAQQLRGLYFKDGGPIIAAQVDNEYMASSAPWEMTTGISREWVPSGHDGAGYLERLRDIAIEEGIDPPMFTCTGWQSPVPDDMLPLWGGYAYRPWLFYDGVGAEGMTEHPATDEYRYRRLHGSSTSDGFDPPYDPDSRPYACCEMGGGMFNSYDYRFVLPKRSVDAMANIKLGSGCDFLGYYMFHGGTNPKGAAGFLNEGQTPKRSYDFQAPLGKFGQVRESYRRLRTLHEFVKAFGPELAGMPVSLQDGQDRIDPSDSETLRYAVRSDGERGFVSIDNFQDHARVPSRHGEQIDVTTGTGERIRFTGIGLAEGENCILPFNMDLDGVRLVRANLQPVTVLRVPGRPFRTFVFLKPDGMDELTFHFEGDIQDVTVGKADFERFMVRDAAEIVCVTRALAGRMTVLDGGLAFVDDDNALLYEDGDGWTLESPRAENGIAAYPEGLLGSPRPVEPVSVYARMRRLHADRYEIALPAGMGRLFRDQRQVADVMLNIAYQGDIGWLFCGDVLIADNFCNGETWQVGLRDYADAIDAAGGKLTLVVTPLRRGVRVKVTSSMAARLEQSDACVADVTDVYATPVYHMPVGEGHHHHHH | soluble
9 | MSLTRFPVTALRSVDLGTPDLARSEAFYREVWGLERVGTAGGVVYLRATGRDHHVVALHRSARTELRAVTFRVADADDFEAISRNAIEQGATLIAAPAANMAPDGGTIMTLRSPEGGLLRFVHGDIRHDARPSRPELPERLAHVNLNSTDVDRTAAFYARALGFKLTDRSAAMAFVRCNSDHHAVVIAAAKVNGLNHVAFLMPTWEGVMRGSGRMIDAGYPIAWGVGRHGPGDNVFAYFIDPVGTVIEYTAEVLQVDDDYVVRGPEHWVWPPGRTDQWGIAPPKAEHVKAAQLAVGFAAEGHHHHHH | soluble
10 | MSLTRISELPPQIRQEIEQLDQYIQKQVQISHHLKADTIDHDELIDSIPRDVAYLLKSESATSQYLKQDLKKISSFKSLIDEDLLDTQTFSVLLQQLLTPGSKISSNDLDKFFQKKIHLYEKKLEDYCRILSDIETAVNGIDTDLFGAPNNPNSTAITADLGSSEAENLLQLKTGLAAIVSTVIEEFTLFMDIAERIAVLHQKTKTLASLSEGHHHHHH | soluble
11 | MSLTSSDVRNKYNFNSDWLLYVGDVPEAKQPRFSDSEWKKVTLPHAFNEDEAFRLSIDELTDTIMWYRKHFRLPANSKNKKVFVEFEGVRQGADFYINGQNVGLHENGVMAVGFDLTPYIKYGQENVIAVRIDNDWNYKERATGTKYQWSNKNFNANYGGIPKNVWLHVTDRLYQTLPLYSNLKTTGVYIYAEDIRVKSRKAIIHAESEIRNEYNRDKQVSYQVELIDRDGTSIQTFEGTKAVVKPGETITLKAASEVDNLHFWSWGYGYLYTVKTSLWVDGRKVDEVATRTGFRKTRFGKGMIWLNDRVIQMKGFAQRTSNEWPGVGMSVPAWLSDYSNHLMVEGNANLVRWMHVTPWKQDIESCDRVGLIQAMQAGDAEKDCEGRQWEQRTELMRDAIIYNRNNPSILFYECGNESISREHMIEMKAIRDLYDPHGGRAIGSREMLDIREAEYGGEMLYINKSAHHPMWAMEYCRDEGLRKYWDDYSYPYHKDGDGSNSYKSTVTNKVQKKVDARVYNRNQDSFTIENIIRWFDYWRERPGTGDRVSSGGVKIIFSDTNTHYRGVENYRRSGVTDAMRIPKDPFFAHQVMWDGWVDTECPRIYIVGHWNYNDTVVKPVYVVSSADKVELFLNGKSLGYGEQDYHFLYTFKDIAFVPGRLEAVGYDENGKECCRTQLQTAGKPEQIQLSFIQSPEGWKADGADMVLLQVEVMDKDGNRCPLANDLIHFEVEGPAEWRGGIAQGENNYILSKDLPVECGINRALIRSLTTAGNVRITAKADGLKPAEISLTSSPVEVKNGLSNYIPGDELEGRLTRGETPQTPSYKVSKVDVGIVSAIAGANNESTVNSFDDNELSEWRNDGKAATAWITYKLERAARVDEVCMKLTGWRMRSYPLEIYAGKELIWSGDTDKSLGYVHLDVKPVLTNEITIRLKGTSKEGDAFGQIVEVAAPVANELDLFKAKDGDKTGHELRIVEIEFKENLLKEGHHHHHH | soluble
12 | MSLTTELVDWTHEQKCRKAVASLEKNGFTAVYCGTGQEALEYIVAEAAEAESVGFGGSMSVDDLKVIERIREMGKELLIHGAPGLSLEERVTIMRRQLTCDLFLAGTNALTLSGWLVNIDATGNRVGSMFFGPRKVIVVAGRNKIVDGGVQEAIDRIKEWASPPNARRLNYKTPCGTTGFCSDCNSPDRICRITTVIDRKPRLTDLRVLVVNEEMGFLEHHHHHH | soluble
13 | MSLTTIIFDNGGHNMKIGTIDSESPRLVPNSIVKAKHEKKRVFVAHEQEECSDKFSLFYVRPIERGYVVNWDTQQQIWEKTFGSMDVEASTSRIALTDNNYLIPALPDVSSEILFDYFGFTEVHKTSASTLVAKHSNKINNEKCAVVVDSGFSWTTVASFVNGMLIQDSVIRIDVGGKALTNKLKDWVSYRQLNVSEETYVINECKEDLCFVSQNFDESMKEARNRFQENTTMKRYIMPDFHSTFRGVVKDVKEPHDPQIPSIHLGVERFAIPEILFNPSDIDIDQCGVAEAVIESICQCPEALRPALAENIIVIGGSSCFPGFRERLEREVRSMLPAEYGLNVSNDVINPQTHSWHCGQELLTASKVPWINRKDWDERGDSLEFSNFFQTLVQSDELKGTRNFDDQREKSPKEDEDF | not soluble
14 | MSLTVIIKSMETPEEIEGKSLVHWQTWRESYDDLLPAEFQDTMTLERCRFFSQKYPENTLIAMDGVKVVGFISYGNFRDETIQAGEIIALYVLKDYYGKGIAQKLMKAALTALNHFSEIFLWVLKDNKRAIAFYQKMGFTFDGQEKILELGKPIKEKRMVFYSKEGHHHHHH | soluble
15 | MSLTYPVLKGAGYVLIHTPDMIVQNGSTCTVERATNPDSEFLKEVSNHIRSYEDVVNYMPNQVYIGNRRPEELRDLPMPWCEQKIEGTRNGKFGEIMPQDEFIALMQISDAFDLVKLSQEFIDEVKPKIENNYPEIAPFVGKLKGDDIEEGKELVATHIAEGLYHDGKFVGYVKRAHDVDVNLNAHTMFENLVVKASGVLSAIQMLRHSKIDPAEIDYVIECSEEACGDINQRGGGNFAKSIAEIAGLQNATGSDTRGFCAAPTHALIQAAALVKAGIHKNVMVVAGGASAKLGMNAKDHVKKGLPVLEDVVGGFAVLVSENDGVNPVIRTDLTGKHTVGTGSSPQAVMTALITSGLDRANLKITDVDVYSVEMQNPDITKPAGAGDVPEANYKMIGALAVKRGDLEKKELKDFVSNKGLPGWAPTQGHIPSGAPYIGFLIDDLTTGNRNRAMIVGKGSLFLGRMTNLFDGVSFIAERNTGVTEETSGISKDEIKKIIAESMKKLALDMLEEGHHHHHH | soluble
